Test results: patent US20220025021A1 (BETH ISRAEL DEACONESS MEDICAL CENTER, published 2022)

B1: MS-90 (antibody)
VH: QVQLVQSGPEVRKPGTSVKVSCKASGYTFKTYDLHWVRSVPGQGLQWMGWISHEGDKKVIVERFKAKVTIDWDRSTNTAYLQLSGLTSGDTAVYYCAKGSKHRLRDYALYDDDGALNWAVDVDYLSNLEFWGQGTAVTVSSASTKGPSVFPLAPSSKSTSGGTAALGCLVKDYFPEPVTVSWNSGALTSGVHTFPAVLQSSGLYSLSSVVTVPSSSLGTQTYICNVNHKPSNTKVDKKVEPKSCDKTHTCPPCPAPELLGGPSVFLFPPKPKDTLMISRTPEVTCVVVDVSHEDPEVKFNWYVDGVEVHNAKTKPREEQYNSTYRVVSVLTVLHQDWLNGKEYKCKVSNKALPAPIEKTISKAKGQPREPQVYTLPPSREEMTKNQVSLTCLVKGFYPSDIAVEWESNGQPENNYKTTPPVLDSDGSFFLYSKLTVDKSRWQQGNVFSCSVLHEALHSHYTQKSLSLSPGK
VL: DFVLTQSPLSLSVTPGESASISCKSSHSLIHGDRNNYLAWYVQKPGRSPQLLIYLASSRASGVPDRFSGSGSDKDFTLKISRVETEDVGTYYCMQGRESPWTFGQGTKVDIKRTVAAPSVFIFPPSDEQLKSGTASVVCLLNNFYPREAKVQWKVDNALQSGNSQESVTEQDSKDSTYSLSSTLTLSKADYEKHKVYACEVTHQGLSSPVTKSFNRGEC
B2: MS-88 (antibody, V domains shown)
VH: QVQLVQSGPEVRKPGTSVKVSCKASGYTFKTYDLHWVRSVPGQGLQWMGWISHEGDKKVIVERFKAKVTITRDRSTNTAYLQLSGLTSGDTAVYYCAKGSKHRLRDYALYDDDGALNWAVDVDYLSNLEFWGQGTAVTVSS
VL: DFVLTQSPHSLSVTPGESASISCKSSHSLIHGDRNNYLAWYVQKPGRSPQLLIYLASSRASGVPDRFSGSGSDKDFTLKISRVETEDVGTYYCMQGRESPWTFGQGTKVDIKR
B3: MS-89 (antibody, V domains shown)
VH: QVQLVQSGPEVRKPGTSVKVSCKAPGYTLKTYDLHWVRSVPGQGLQWMGWISHEGDKKVIVERFKAKVTITWDRSTNTAYLQLSGLTSGDTAVYYCAKGSKHRLRDYALYDDDGALNWAVDVDYLSNLEFWGQGTAVTVSS
VL: DFVLTQSPLSLSVTPGESASISCKSSHSLIHGDRNNYLAWYVQKPGRSPQLLIYLASSRASGVPDRFSGSGSDKDFTLKISRVETEDVGTYYCMQGRESPWTFGQGTKVDIKR
B4: MS-91 (antibody, V domains shown)
VH: QVQLVQSGPEVRKPGTSVKVSCKASGYTLKTYDLHWVRSVPGQGLQWMGWISHEGDKKVIVERFKAKVTIDWDRSTNTAYLQLSGLTSGDTAVYYCAKGSKHRLRDYALYDDDGALNWAVDVDYLSNLEFWGQGTAVTVSS
VL: DFVLTQSPLSLSVTPGESASISCKSSHSLIHGDRNNYLAWYVQKPGRSPQLLIYLASSRASGVPDRFSGSGSDTDFTLKISRVETEDVGTYYCMQGRESPWTFGQGTKVDIKR

Experiments:
Test in all cases: cell-based or functional assay
[1] = target: HIV-1 Env of pseudovirus BB1012-11.TC21 (HIV-1)
[2] = target: HIV-1 Env of pseudovirus RHPA4259.7 (HIV-1)
[3] = target: HIV-1 Env of pseudovirus 0260.v5.c36 (HIV-1)
[4] = target: HIV-1 Env of pseudovirus SC422661.8 (HIV-1)
[5] = target: HIV-1 Env of pseudovirus CNE52 (HIV-1)
[6] = target: HIV-1 Env of pseudovirus Du172.17 (HIV-1)

| Binder | neutralization IC50 [1] [µg/mL] | neutralization IC80 [1] [µg/mL] | neutralization IC50 [2] [µg/mL] | neutralization IC80 [2] [µg/mL] | neutralization IC50 [3] [µg/mL] | neutralization IC80 [3] [µg/mL] | neutralization IC50 [4] [µg/mL] | neutralization IC80 [4] [µg/mL] | neutralization IC50 [5] [µg/mL] | neutralization IC80 [5] [µg/mL] | neutralization IC50 [6] [µg/mL] | neutralization IC80 [6] [µg/mL] |
| --- | --- | --- | --- | --- | --- | --- | --- | --- | --- | --- | --- | --- |
| B1 | 0.044 | 0.204 | 0.254 | 1.33 | 0.03 | 0.168 | 1.48 | > 25 | 1.05 | 8.56 | 4.07 | 15.6 |
| B2 | 0.02 | 0.088 | 0.504 | 2.51 | 0.178 | 1.51 | 1.41 | > 25 | 5.86 | > 25 | > 25 | > 25 |
| B3 | 0.032 | 0.143 | 0.29 | 1.04 | 0.036 | 0.197 | 0.786 | > 25 | 2.34 | 23.8 | 11.9 | > 25 |
| B4 | 0.037 | 0.17 | 0.267 | 1.82 | 0.046 | 0.171 | 1.66 | 22.1 | 1.41 | 10.6 | 3.85 | 23.9 |
